This data set addresses von Willebrand factor (VWF) (Homo sapiens) (UniProt P04275). Nature of the data set: filter. The following applies: 2'-F pyrimidines; pool after 4 rounds convergent SELEX.

Sequence “GGGAGGACGAUGCGGNNNNNNNNNNNNNNNNNNNNNNNNNNNNNNNNNNNNNNNNCAGACGACUCGCUGAGGAUCC [VWF convergent SELEX round 4 pool (R9)]” came in with a Kd of 4.5 nM.

Values taken from patent publication US20120264815.
